Measured values published in patent publication US20250382354A1 (INSTITUTE FOR RESEARCH IN BIOMEDICINE IRB, published 2025).

Columns and labels:
[1] = molecular target: HKU24 HR2 peptide (HKU24); assay: peptide ELISA
[2] = molecular target: Rosettus HR2 peptide (Rosettus); assay: peptide ELISA
[3] = molecular target: C-terminally truncated SARS-CoV-2 S protein (pSARS-CoV2-Strunc), ancestral (SARS-CoV-2, UniProt P0DTC2 14-1273); assay: cell-based or functional assay
[4] = molecular target: HKU24 HR2 peptide (HKU24); assay: peptide ELISA; remark: listed apart in the source
[5] = molecular target: Eidolon HR2 peptide (Eidolon); assay: peptide ELISA
[6] = molecular target: T1, CRCoV-240/05 HR2 peptide (CRCoV-240/05); assay: peptide ELISA
T1 construct: domain: HR2 peptide

[7] = molecular target: C-terminally truncated SARS-CoV-2 S protein (pSARS-CoV2-Strunc), ancestral (SARS-CoV-2, UniProt P0DTC2 14-1273); assay: cell-based or functional assay; remark: listed apart in the source

Row | Binder | EC50 [1] | EC50 [2] | Ancestral Pseudovirus IC50 [3] | EC50 [4] | EC50 [5] | EC50 [6] | Ancestral Pseudovirus IC50 [7] | Ancestral Pseudovirus IC50 (on cells with [not given]) [7]
1 | hr2.094 (antibody, V domains shown) VH: EVQLVESGGGLVQPGGSLRLSCAASGFTFSTFWMTWVRQAPGKGLEWVANIKSDGSEKYYVDSVKGRFTISRDNAKNSLYLQMNSLRAEDTAVYYCATWFGLHWGQGTLVTVSS VL: DIVMTQSPDSLAVSLGERASINCKSSQTVLYSSNNKNYLAWYQQKPGQPPKLLIHWASTRDSGVPDRFSGSGSGTDFTLTISSLQAEDVAVYYCQQYHRIPWTFGRGTKVEIK | 0.012 µg/mL | 0.656 µg/mL | 2.95 µg/mL |  |  |  |  | 
2 | CV3-25 (antibody, V domains shown) VH: QVQLVESGAEVKKPGESLKISCKGSGYTFTRYWIGWVRQMPGKGLEWMGIIYPGDSDTRYSPSFQGHVTISADKSISTAYLQWNSLKASDTAMYYCARLPQYCSNGVCQRWFDPWGQGTLVTVSS VL: EIVLTQSPSSVSASVGDRVTITCRASQGISSWLAWYQQKPGKAPKLLIYAASSLQSGVPSRFSGSGSGTDFTLTISSLQPEDFATYYCQQGNSFPYTFGQGTNLEIK |  |  |  | 0.0521 µg/mL | 0.0351 µg/mL | 1.92 µg/mL | 0.223 µg/mL | 0.375 µg/mL
